Measured values published in patent US20120190612A1, “METHODS OF TREATMENT” (CRC FOR ASTHMA AND AIRWAYS LTD., priority 2009, published 2012).

How the values were obtained:
HMVEC-LLy cells [1] = assay: Real-time impedance (xCellgenix) cell attachment and proliferation; assay type: cell-based, human
Method: HMVEC-LLy cells were treated with lamstatin and cell attachment and proliferation were measured in realtime using the xCellgenix system (Roche). This system measures a cell index factor, representing impedance mediated by cells. Gold electrodes on the well bottom measure this impedance and the more cells attach to the bottom the higher the impedance (cell index). This measurement allows for detecting early events after treatment such as detachment (e.g. through cell death) or inhibition of proliferation and reduction of cell number.
A Xcellgenix gold coated microtiter plate was seeded with 5×10^3 cells (HMVEC-LLy) per well and incubated in 100 μL complete EBM-2 for 24 hrs prior to treatment. In fresh media, serial dilutions of lamstatin or vehicle (1 nM EDTA, pH 3.0) were prepared. Cell culture supernatant was removed and replaced by 100 μL fresh serially diluted lamstatin. The plate was locked into the Xcellgenix recorder and a signal of impedance recorded at 5 min intervals for 6 hrs, and subsequently every 60 min.

outer nodule cells (LAM) = assay: Tube formation of LAM outer nodule cells; assay type: cell-based; conditions: 5 hrs
Method: (§1) To assess formation of tubular structures, 48 well plates were coated with 130 μL Matrigel® (BD Bioscience), which was solidified at 37° C. over 45 min. 2×10^4 HMVEC-LLy cells in complete EBM-2 (500 μL) were seeded per well and allowed to attach for 30 min, before lamstatin, tumstatin, CP17 or vehicle was added to the wells. Photos were taken with a Kodak Digital Camera every 2 hrs. Tube formation peaked at 24 hrs, at which time tubular structures were further analysed to determine length (in pixels) and number of tubes per high power field (HPF) area (px^2). The HPF was divided in nine regions of equal size and tubes per region were counted. Mean and SEM were calculated and plotted.
The inventors then analysed tube formation in LAM nodule cells and found only the outer nodule cells responded with pseudo-tube formation. Assay for tube formation was performed as described above in Example 2. Photos were taken at 2, 3, 4, 5 and 24 hrs after seeding. Lamstatin was added directly after seeding to inhibit prior tube formation. Tube formation peaked at 5 hrs and after 24 hrs no tubular structures were observed (both treated and untreated) (data not shown).

HMVEC-LLy cells [2] = assay: Tube formation on Matrigel; assay type: cell-based, human; conditions: 24 hrs, n=2
Method: as §1

LAM nodule cells = assay: MTT cell viability assay, LAM nodule cells; assay type: cell-based; conditions: intermediate layer, centre and outer nodule cells, 72 hrs
Method: To determine the function of lamstatin, human primary lymphatic endothelial cells (HMVEC-LLy cells) were exposed to various concentrations of lamstatin and an MTT assay was performed. As a comparison, commercially available tumstatin was used. Specifically, to assess cell viability 4×10^3 HMVEC-LLy cells were seeded per well in 100 μl complete EBM-2 media (with bullet kit, Lonza) and incubated for 2 hrs at 37° C., 5% CO2. After this period lamstatin, tumstatin and respective vehicles (1 nM EDTA, pH 3.0) were prepared in complete EBM-2 as serial dilutions in a separate plate and added. Cells were grown for 24 hrs before MTT (1 mg/mL in PBS) was added. After 6 h of further incubation cells were lysed overnight with 10% SDS/0.01 M HCl and measured the following day in a plate reader at 570 nm.
The inventors isolated lung cells from a LAM patient, which cells originated from the LAM nodules. These cells were termed according to their location within the nodule, as intermediate layer in the nodule, centre cells and outer nodule cells. These cells were then treated with lamstatin or tumstatin and cell viability measured after 72 hrs. The MTT viability assay was performed as described above in Example 1.

epithelial cells (A549) = assay: MTT cell viability assay, epithelial cells; assay type: cell-based; conditions: increasing concentrations, 72 hrs
HMVEC-LLy cells [3] = assay: Migration towards a VEGF-D gradient (FluoroBlok transwell); assay type: cell-based, human; conditions: 24 hrs, n=1; VEGFD alone 42.000 RFU
Method: FluoroBlok BioCoat 24-well inserts (BD Bioscience) were seeded with 4×10^4 HMVEC-LLy cells in 750 μL DMEM with 0.1% BSA, 1% antibiotics and 25 mM HEPES and incubated for 1 hr. The bottom well was filled with 500 μL medium (as described above) with or without 10 ng/mL VEGF-D (R&D Systems) as well as various concentrations of lamstatin, tumstatin, CP17 or vehicle. Additionally, top wells were loaded with inhibitors to match the bottom well concentration. According to manufacturer's instructions cells were allowed to migrate for 24 hrs before bottom media was removed. Thereafter the underside of the transwell with the migrated cells was washed twice with HANKS buffer and placed in a 4 μg/mL calcein (HANKS) solution for 90 min at 37° C. Signal was read with a bottom read fluorescence microplate reader at 485/515 nm (excitation/emission).

[4] = tested on: lung adenocarcinoma cells (LNM35 AAV-GFP); assay: Mouse ear tumour plug model of tumour-induced lymphangiogenesis; assay type: in vivo
Method: A mouse ear tumour plug model was utilized in which green fluorescent protein (GFP)-tagged lung adenocarcinoma cells (LNM35 AAV-GFP) were injected between the two layers of skin of the ears of NOD/SCID mice. 1×10^6 tumour cells were embedded in […] growth factor free Matrigel® medium enriched with vehicle (1 nM EDTA, pH3.0) or lamstatin at either 10 μg/mL or 100 μg/mL. Mice were divided into three groups.
Group 1 (n=9): One ear of each mouse injected with tumour cells+10 μg/mL lamstatin; the other ear injected with tumour cells+vehicle control. Group 2 (n=9): One ear of each mouse injected with tumour cells+100 μg/mL lamstatin; the other ear injected with tumour cells+vehicle control. Group 3 (n=3): Each ear injected with Matrigel® only.
Injections were single shots such that at least 25 μL was injected. 12 days after injection were sacrificed by anesthetisation and cervical dislocation. Ears were removed for whole mount staining. Flaps of skin from each ear were carefully separated, fixed and stained for either the lymphatic endothelial cell specific marker LyVe-1 (rabbit polyclonal anti-LyVe-1 antibody detected using anti-rabbit Alexafluor 647) or the vascular endothelial cell specific marker PECAM (CD31 rat anti-mouse antibody clone MEC13.3 (Pharmingen), detected with […]). Tumour cells were visualised by detection of GFP expression. Images of representative regions of ears were obtained using a confocal microscope and LyVe-1 or PECAM staining was quantified.
Using the LyVe-1 whole mount stained mouse ear sections, the inventors further investigated the morphology of lymphatic vessel formation. Specifically confocal images were loaded into Image J software (www.sbweb.nih.gov/ij/), a 5×5 grid overlayed and vessels examined for branching and looping. The functionality of a lymphatic network is based on its maturity and in general it is accepted that a tumour induces a rather immature network formation. Reconnecting vessels (measured as loops) and increased branching (measured as branches) are signs of immature vessels induced by, for example, a tumour (see for example Shayan et al. Growth Factors 25, 417-425, 2007).
Branches were defined as two clearly distinguishable vessels that separate out without rejoining. Loops were defined as small, circular vessel structures in the same focal plane. Branches or loops were counted separately per image and mean values were calculated for each treatment group.

[5] = lamstatin 10 or 100 μg/mL, CP17 5 or 50 μA, vs vehicle

B1: lamstatin: NC1 domain of the α5 chain of collagen type IV; human amino acid sequence SEQ ID NO:1; recombinant (protein, listed as Homo sapiens)
chain: GFLITRHSQTTDAPQCPQGTLQVYEGFSLLYVQGNKRAHGQDLGTAGSCLRRFSTMPFMFCNINNVCNFASRNDYSYWLSTPEPMPMSMQPLKGQSIQPFISRCAVCEAPAVVIAVHSQTIQIPHCPQGWDSLWIGYSFMMHTSAGAEGSGQALASPGSCLEEFRSAPFIECHGRGTCNYYANSYSFWLATVDVSDMFSKPQSETLKAGDLRTRISRCQVCMKRT
time required to reach a threshold cell index of 1, compared with vehicle control (HMVEC-LLy cells [1]; 10 μg/mL): double | cell attachment (HMVEC-LLy cells [1]; after 55 min of treatment, various concentrations): reduction in cell attachment | tube length (outer nodule cells (LAM)): significantly inhibited | tube number (tubes per square pixel) (outer nodule cells (LAM)): significantly inhibited | numbers of tube-like structures formed (HMVEC-LLy cells [2]): reduce in a concentration related manner | reduction of cell viability (MTT) (LAM nodule cells): effective in reducing cell viability of all nodule cell types at both high (e.g. 10 μg/mL) and low (1.25-2.5 μg/mL) concentrations | cell viability (MTT) (epithelial cells (A549)): only lymphatic endothelial cells responded | migration towards a VEGFD gradient (HMVEC-LLy cells [3]): 10000 RFU | lymphatic vessel formation around the tumour (visual inspection) ([4]; 10 μg/mL): reduction in the number of lymphatic vessels and a dilation of lymphatic vessels | PECAM staining in the vicinity of tumour cells ([4]; 10 μg/mL or 100 μg/mL, 12 days): no obvious reduction | lymphatic vessel formation around the tumour (visual inspection) ([4]; 100 μg/mL, compared to 10 μg/mL): further reduction in lymphatic vessel network density | development of blood vasculature around the tumour ([4]; 10 and 100 μg/mL): no discernable effect | reduction of mean intensity of LyVe-1 staining compared to vehicle only ([4]; both 10 μg/mL and 100 μg/mL, whole mount ears, 12 days): approximately 60% | number of branches of lymphatic vessels [4, 5]: significantly reduced | number of loops of lymphatic vessels [4, 5]: significantly reduced
